Laboratory results taken from publication PMC4265319.

What was measured:
[1] = molecular target: T1, KdpE (Staphylococcus aureus) (UniProt Q2FWH6); assay: EMSA; conditions: EMSA 25 C, 20 min, 20 ul, 1x binding buffer, 2.5% glycerol, 50 ng/ml poly(dI-dC), 0.05% NP-40; CymR/KdpE buffer: 20 mM Tris-HCl pH 7.5, 10 mM MgCl2, 100 mM …
T1 sequence: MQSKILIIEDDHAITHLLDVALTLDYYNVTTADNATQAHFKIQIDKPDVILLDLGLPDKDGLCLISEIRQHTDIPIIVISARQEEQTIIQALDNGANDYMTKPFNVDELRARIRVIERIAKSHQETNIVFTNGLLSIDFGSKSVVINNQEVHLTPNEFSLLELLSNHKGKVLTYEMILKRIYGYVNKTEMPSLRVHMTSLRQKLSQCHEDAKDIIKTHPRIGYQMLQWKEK

[2] = molecular target: T2, LacR (Staphylococcus aureus) (UniProt Q5HE08); assay: EMSA; conditions: EMSA 25 C, 20 min, 20 ul, 1x binding buffer, 2.5% glycerol, 50 ng/ml poly(dI-dC), 0.05% NP-40; CymR/KdpE buffer: 20 mM Tris-HCl pH 7.5, 10 mM MgCl2, 100 mM …
T2 sequence: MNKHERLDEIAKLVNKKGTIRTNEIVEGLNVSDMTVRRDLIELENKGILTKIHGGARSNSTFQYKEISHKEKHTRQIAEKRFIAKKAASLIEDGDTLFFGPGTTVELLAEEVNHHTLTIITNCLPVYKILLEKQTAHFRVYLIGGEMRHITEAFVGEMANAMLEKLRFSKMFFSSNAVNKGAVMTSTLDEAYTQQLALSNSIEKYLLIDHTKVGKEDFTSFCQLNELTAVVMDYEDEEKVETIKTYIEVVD

Sequence | binding [1] | binding [2]
GTAATCCATTGTTACCTCCCGATTACAAATTTTGTTCTATCTACTATTTAGCAAAGTAATAATACATCATATCACATTAAATTAATTACTTATGTCTTATATTTAACACTTAATTTAGCGATTACGCAAATGAATGATTTTTCTAAATATTTTATTCTAACTTTATCCGGAAATATTTGTTATACGTATAACTTGGAGAATGACTACTTGAAATTTAATGACGTATACAACAAACACCAC (double strand) [sigS promoter] | binds | no binding
GACATAACCTTCACCTCGATAGCAATATCATAATATTCTTCACAATTAAATGCTATAAAATTTATTTCTGCATACACATCTTAATGATTTCTTAATAACTAAGTTTGAAAATTAATATTTCTCTCATAAACAAGTTGTTACGATGTTGTTGTGTTGTAAGGAGGTTATGGCAATGCTCATCGTTTTATTACTGGTAGTTATTGCATTAGTTTTGTATTTATTTTATGCCTTAATTCGTAGTGAAAAATTTTAGAAATATATTAAGTGAGGGTTATCATGG (double strand) [kdpFABC promoter] | binds | –
